# T1: γ subunit of Sulfolobus solfataricus aIF2 (Ss-aIF2γ), native version (S. solfataricus, UniProt Q980A5 2-415)
# T1 sequence: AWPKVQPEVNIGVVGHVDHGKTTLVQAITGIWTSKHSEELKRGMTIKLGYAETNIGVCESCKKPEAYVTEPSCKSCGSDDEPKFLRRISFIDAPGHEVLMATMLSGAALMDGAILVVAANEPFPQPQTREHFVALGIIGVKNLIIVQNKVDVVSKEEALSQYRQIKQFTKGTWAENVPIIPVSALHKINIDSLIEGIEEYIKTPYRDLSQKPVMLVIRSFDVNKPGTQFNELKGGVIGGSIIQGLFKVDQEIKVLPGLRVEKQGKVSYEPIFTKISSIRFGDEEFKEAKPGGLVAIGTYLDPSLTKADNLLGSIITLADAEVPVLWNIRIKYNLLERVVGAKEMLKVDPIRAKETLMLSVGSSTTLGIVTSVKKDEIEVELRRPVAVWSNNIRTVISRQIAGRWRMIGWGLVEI
# B1: yeast eIF2αΔC274, His-tag removed (SAXS sample) (domain or fragment)
# chain: MSTSHCRFYENKYPEIDDIVMVNVQQIAEMGAYVKLLEYDNIEGMILLSELSRRRIRSIQKLIRVGKNDVAVVLRVDKEKGYIDLSKRRVSSEDIIKCEEKYQKSKTVHSILRYCAEKFQIPLEELYKTIAWPLSRKFGHAYEAFKLSIIDETVWEGIEPPSKDVLDELKNYISKRLTPQAVKIRADVEVSCFSYEGIDAIKDALKSAEDMSTEQMQVKVKLVAAPLYVLTTQALDKQKGIEQLESAIEKITEVITKYGGVCNITMPPKAVTAT
# B2: yeast αD3ΔC274, His-tag removed (SAXS sample) (domain or fragment)
# chain: TPQAVKIRADVEVSCFSYEGIDAIKDALKSAEDMSTEQMQVKVKLVAAPLYVLTTQALDKQKGIEQLESAIEKITEVITKYGGVCNITMPPKAVTAT
# Molecular target: T1, γ subunit of Sulfolobus solfataricus …
# Assay: SEC
row,Binder,binding result
1,B1,binds
2,B2,binds
